Stoichiometry N data for one molecule are collected here from paper PMC4005650.

Experiment [1] has as its target T1, LtrA, intron-encoded protein (IEP) of the Lactococcus lactis Ll.LtrB group II intron (Lactococcus lactis), P0A3U0.
T1 chain: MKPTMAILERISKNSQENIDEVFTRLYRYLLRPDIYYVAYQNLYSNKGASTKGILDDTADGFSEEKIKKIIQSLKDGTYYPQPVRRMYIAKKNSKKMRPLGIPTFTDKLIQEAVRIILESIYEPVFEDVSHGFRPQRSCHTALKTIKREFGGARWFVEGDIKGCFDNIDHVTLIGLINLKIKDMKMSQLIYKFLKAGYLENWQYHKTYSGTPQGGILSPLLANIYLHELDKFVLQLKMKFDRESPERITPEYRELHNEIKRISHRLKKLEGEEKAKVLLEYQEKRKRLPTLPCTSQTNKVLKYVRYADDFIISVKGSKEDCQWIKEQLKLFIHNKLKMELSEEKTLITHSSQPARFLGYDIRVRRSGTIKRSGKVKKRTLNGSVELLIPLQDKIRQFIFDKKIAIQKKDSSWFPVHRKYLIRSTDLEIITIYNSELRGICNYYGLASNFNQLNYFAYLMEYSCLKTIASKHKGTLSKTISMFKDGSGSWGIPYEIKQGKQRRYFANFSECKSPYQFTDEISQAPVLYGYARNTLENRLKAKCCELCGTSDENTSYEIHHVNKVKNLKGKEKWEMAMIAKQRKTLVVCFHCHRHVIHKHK
Briefly: SEC-MALS; purified +A RNP (LtrA with 902 nt intron lariat RNA) on Superdex 200 10/300 GL; 20 mM Tris pH 7.4, 200 mM KCl, 5 mM MgCl2; room temperature; mass-averaged dn/dc 0.182 ml/g. Conditions: remark: other sources report otherwise. Background: In gel filtration, larger molecules generally elute earlier.

In experiment [2] the target is T1, LtrA, intron-encoded protein (IEP) of …. Briefly: AUC; sedimentation velocity of purified +A RNP at 7-14 ng/µl; 4°C; 28 000 rpm; 20 mM Tris pH 7.4, 200 mM KCl, 5 mM MgCl2; absorbance at 260 nm; SEDFIT. Conditions: remark: other sources report otherwise.

B1: LtrA, intron-encoded protein (IEP) of the Lactococcus lactis Ll.LtrB group II intron, P0A3U0 1-599 (natural protein)
chain: MKPTMAILERISKNSQENIDEVFTRLYRYLLRPDIYYVAYQNLYSNKGASTKGILDDTADGFSEEKIKKIIQSLKDGTYYPQPVRRMYIAKKNSKKMRPLGIPTFTDKLIQEAVRIILESIYEPVFEDVSHGFRPQRSCHTALKTIKREFGGARWFVEGDIKGCFDNIDHVTLIGLINLKIKDMKMSQLIYKFLKAGYLENWQYHKTYSGTPQGGILSPLLANIYLHELDKFVLQLKMKFDRESPERITPEYRELHNEIKRISHRLKKLEGEEKAKVLLEYQEKRKRLPTLPCTSQTNKVLKYVRYADDFIISVKGSKEDCQWIKEQLKLFIHNKLKMELSEEKTLITHSSQPARFLGYDIRVRRSGTIKRSGKVKKRTLNGSVELLIPLQDKIRQFIFDKKIAIQKKDSSWFPVHRKYLIRSTDLEIITIYNSELRGICNYYGLASNFNQLNYFAYLMEYSCLKTIASKHKGTLSKTISMFKDGSGSWGIPYEIKQGKQRRYFANFSECKSPYQFTDEISQAPVLYGYARNTLENRLKAKCCELCGTSDENTSYEIHHVNKVKNLKGKEKWEMAMIAKQRKTLVVCFHCHRHVIHKHK
For orientation: stoichiometry N means the number of molecules, sites or subunits per partner or assembly. On to B1, for which the stoichiometry N in experiment [1] and in experiment [2] was 2 each time.
